Target: Glutathione peroxidase 4 (GPX4), endogenous in OS-RC-2 cells (Homo sapiens, OS-RC-2 cells, UniProt P36969)
Assay: pull-down

B1: 4C-R10 (nanobody 4C fused at its C-terminus through an SGSGSG linker to the arginine-rich R10 cell-penetrating peptide) (VHH)
VHH: EVQLEESGGGSVQAGGSLRLSCAAPGDTSSRYYMGWFRQAPGKEREGVAGFSTGLGRTTYADSVKGRFTISQDNAKNTIYLQMNSLKVEDTAMYYCATGRAWAAGSPMYGPFDSRRYNYWGQGTQVTVSS
  binding result: binds

Source: paper PMC11575642 (Chemical Science, 2024)
